± gives the uncertainty stated by the source.

This data set can be described thus: amyloid nucleation score (Sup35N fusion, yeast selection) (log enrichment); library NNK3; higher = more nucleation; inactive = no reads after selection. An outline of the steps:
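Nucleation score is defined as the DiMSum log enrichment of output over input reads, with centring on the mode score of non-aggregating sequences. A minimum of 100 input reads was required for each sequence. Reads came from Illumina sequencing of plasmid inserts from psi-negative yeast expressing Sup35N fused to peptides of 20 random codons, induced with 100 μM copper sulfate for 24 hours and grown 7 days at 30°C on medium lacking adenine and uracil.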
Take ECVFIKFWVEGWKTLWSWSA: the amyloid nucleation score entry was “inactive”. ECYFFHFTR registered an amyloid nucleation score of 1.34 ± 0.12. In the case of EDFNRILVRNVRS, the amyloid nucleation score result was “inactive”.

On to EDIEMEMLLLGCNLEVLNAK, for which the amyloid nucleation score result was “inactive”. In the case of EDLVLRIDSTAACAELEKWL it was “inactive”. Take EDPGLYFLRVS: the amyloid nucleation score entry is “inactive”.

For EENTVSSTAIKNVVYSQFQV, the amyloid nucleation score result was “inactive”. Turning to EFMIIMYSHSLCVLQAVQLV, the amyloid nucleation score result is “inactive”. As for EFQGQTKSSWAYRLDKLCLP, the amyloid nucleation score entry was “inactive”. Regarding EGEVCSVCY, the amyloid nucleation score result is “inactive”. With EGHGGTRLSHRA, the amyloid nucleation score result is “inactive”.

EGSIQMWTGTSLLDTRIWGG: the amyloid nucleation score entry is “inactive”. Regarding EGVTII, the amyloid nucleation score entry was “inactive”. In the case of EHLQRGSHLFSFSRSEI it was “inactive”. For EHVRVYFVLDYFDFCQAPAG, the amyloid nucleation score result is “inactive”. As for EICSSNKRQRLKRVMEVIFC, the amyloid nucleation score entry was “inactive”. In the case of EIKYTDL it was “inactive”; in that of EIMYVLTIFSNVFVMFFS, -0.436 ± 0.44; in that of EIQVV, “inactive”. For the substance ELALISHTLGSSATPNWFTV, the amyloid nucleation score entry was “inactive”.

As to ELGFFCSL, the amyloid nucleation score entry was “inactive”. In the case of ELGIII it was “inactive”; in that of ELIMCCHEYSVLAMRLLA, “inactive”; in that of ELRLHNFTFRLVASFWLLRV, “inactive”. As for EMCINSVMMDATMSKH, the amyloid nucleation score entry was “inactive”.

Consider EMPLF, for which the amyloid nucleation score entry was “inactive”. As for ENALARMLAEEI, the amyloid nucleation score entry was “inactive”. Regarding EPRGCYRQMLHKLIMS, the amyloid nucleation score result was “inactive”. On to EQGSSLHRHNHFVTLMGCRG, for which the amyloid nucleation score entry is “inactive”. The substance ERRIDG yielded an amyloid nucleation score of 1.23 ± 0.094. Substance ERRNRMFSWCWCSSSLLDAE returned an amyloid nucleation score of -0.08 ± 1. In the case of ERSHVCCGNDRYTLLWRVYS it was “inactive”; in that of ERVLRVNHYWICSFPFNPGV, “inactive”; in that of ESETWSTYSALQHGQVAIGC, “inactive”. Regarding ESLIGSQGQRSNYNIMGNGW, the amyloid nucleation score result is “inactive”. ESLNGLNRSHA: the amyloid nucleation score entry is “inactive”. Consider ESMISNGFWGLRARCSVINM, for which the amyloid nucleation score entry was “inactive”. On to ESSHRTSIFRDWCNSLLI, for which the amyloid nucleation score entry was “inactive”. Take ESSMFARDTLWMSFVRTMHS: the amyloid nucleation score result is “inactive”. In the case of ESTIEMIAL it was 1.25 ± 0.11; in that of ETECVFSDYHSKVNICGGSL, “inactive”; in that of ETRFIYAFYFD, “inactive”.

As for ETWLKTINRLGLNRSHLSIL, the amyloid nucleation score result was “inactive”. In the case of ETYHCIV, the amyloid nucleation score entry is “inactive”.

With EVDFVALIPCSQTVLFTVEV, the amyloid nucleation score result is “inactive”. On to EVFARIVPRDMMLFLILIIP, for which the amyloid nucleation score entry was “inactive”. On to EVFGVIDDNYFCR, for which the amyloid nucleation score result is “inactive”. In the case of EVFVLNYNWNVCHWLFVADV it was 1.83 ± 0.083; in that of EVIRCRSSEEIPGRTNSMWD, “inactive”; in that of EVKGTCWVCVLVHVATSYVG, 0.65 ± 0.21.

EVLSMYRCSNVFLWFTKFIA: the amyloid nucleation score entry was “inactive”.

As to EVSWVSRNVWFNRTCFCVQV, the amyloid nucleation score stood at 0.042 ± 0.64. Regarding EVVVELIMLS, the amyloid nucleation score result was “inactive”. On to EYYRWFYN, for which the amyloid nucleation score entry was “inactive”. The substance FACAFKSSCLNHLCSAVW gave an amyloid nucleation score of 0.757 ± 0.17.

Turning to FAICMFRGYLLYFLGLEDEA, the amyloid nucleation score result was “inactive”.

On to FALLMCDSHRSCNNVNNFVH, for which the amyloid nucleation score entry was “inactive”. On to FANKTRYSPWSCNPVFWYDR, for which the amyloid nucleation score entry is “inactive”.

As to FAQLISYHSMLTCCKMTM, the amyloid nucleation score stood at 1.54 ± 0.096. In the case of FAQYYDSVPIDEDTIQIVHI, the amyloid nucleation score entry is “inactive”. Take FATFYVQQGFGNFAPKAYS: the amyloid nucleation score entry is “inactive”. FCENRFTSFLKNVIIW had an amyloid nucleation score of 0.398 ± 0.18. FCMRMDRLQLRIADSLLRFF: the amyloid nucleation score entry is “inactive”.

As to FCPTVCQFMVPPPHPSKKLY, the amyloid nucleation score entry was “inactive”. As to FCTFSLRHYVTKNGPVCPTK, the amyloid nucleation score entry was “inactive”. In the case of FCYLPRALCEVLNRCLLNSL it was “inactive”; in that of FDFARWKDMKRESFLFLDVR, “inactive”. FDFRFYQVVVGGCRIETVIV: the amyloid nucleation score result is “inactive”.

Turning to FDGTGRLRF, the amyloid nucleation score is -0.629 ± 1.2. FDIYLCDMYSLIFVCTGRLP had an amyloid nucleation score of -0.544 ± 0.66. Take FDKGFLMTLNTLAVLSNQE: the amyloid nucleation score entry is “inactive”.

In the case of FDLSLDSMKFEAFYFVVRLV, the amyloid nucleation score entry is “inactive”. For the substance FDRLNRDDVIFPSRDFNVSS, the amyloid nucleation score result was “inactive”. As to FDVDGLILFICWCMQRAHM, the amyloid nucleation score entry is “inactive”. In the case of FECYRSSLGQWVMLDVSIHW it was -0.534 ± 0.87; in that of FEEYAIYPVAKGSVKMDAAL, “inactive”. As for FFCMWDRMIALWSHFCNLDG, the amyloid nucleation score entry is “inactive”. With FFFRYILKGMPVLFAVCRHC, the amyloid nucleation score entry is “inactive”. In turn, FFGPLPRTAIYQHILCTRNG came in with an amyloid nucleation score of 0.665 ± 0.14. In the case of FFHFSNVCTWVPDYSETSPS, the amyloid nucleation score entry is “inactive”. In the case of FFHSIPKFFRAQKMCTYVPP it was “inactive”. FFIFRDVSTVDSLGPLYRLM: the amyloid nucleation score came to 1.14 ± 0.2. In the case of FFIYVQTGPS it was -0.922 ± 1.5; in that of FFKDSIVLGVSLRYQFSYLT, “inactive”.

As to FFLCDRKNRRST, the amyloid nucleation score entry is “inactive”. As to FFSCYVESNSVMGKDFCRVM, the amyloid nucleation score stood at 0.788 ± 0.12. FFVNYHVGIFMSIYQIFVYV: the amyloid nucleation score entry was “inactive”. As for FGFRCWLFWS, the amyloid nucleation score result is “inactive”. Regarding FGFYKWPTTCLGSVSSLSSM, the amyloid nucleation score turned out to be 0.749 ± 0.11. FGGLRTATL: the amyloid nucleation score result is “inactive”.

For the substance FGIWRLCRFFA, the amyloid nucleation score result was “inactive”.

For FGMGKRLSNENMPLVSCTGL, the amyloid nucleation score result is “inactive”. In the case of FGQYSGVSCNWTPGCPAPCF it was “inactive”. For FGRFVMERLTS, the amyloid nucleation score result is “inactive”. Regarding FGSVVGRCSTSFVYRLINIR, the amyloid nucleation score stood at 0.65 ± 0.17. FGSYFSLKVFYNYF registered an amyloid nucleation score of 2.38 ± 0.055. Regarding FGVSIVRHQVLLCGLSCISL, the amyloid nucleation score worked out at 1.85 ± 0.091. In the case of FGVVH it was “inactive”. In the case of FHLKKHWGKHGYFFMEDRRT it was “inactive”; in that of FHMFMTYTWYPVI, “inactive”; in that of FHPFFIGVGSFLGSLHEFQS, “inactive”.

The substance FHRTEGCECVASLKVARGVV came in with an amyloid nucleation score of 0.223 ± 0.31. In the case of FHSGMHCMKDFDCLPGFVGR it was “inactive”. As to FHTYIELLRALIAIRQGGSF, the amyloid nucleation score entry was “inactive”.

With FHYVCFTFDSKFVGKLSYGS, the amyloid nucleation score came to 1.61 ± 0.1. Take FIDMN: the amyloid nucleation score entry is “inactive”. For the substance FIFSTLHNVLHGSNRVNSVW, the amyloid nucleation score entry was “inactive”. In the case of FIGVKQTRKLNTFCLGSWLM it was -0.061 ± 0.66; in that of FIIITKAFYRGTKMGGNTYS, -0.427 ± 0.73; in that of FIIPSSMTHMARKNIVRAW, “inactive”. Consider FILFRYVTNALRKSAWVRLC, for which the amyloid nucleation score entry was “inactive”.

Turning to FILLGRNGLG, the amyloid nucleation score entry is “inactive”. In the case of FILYMCKCS, the amyloid nucleation score result was “inactive”. Turning to FIMLQSPTNSSQILMPTQFT, the amyloid nucleation score entry is “inactive”. As to FIMRSSSC, the amyloid nucleation score entry was “inactive”. FIRIHRNAI: the amyloid nucleation score entry was “inactive”. In the case of FISHSCYGWILRGCQTVGFW it was -0.552 ± 0.98; in that of FISRRIRNVILWCYFM, “inactive”. Regarding FITVNRQNGK, the amyloid nucleation score result is “inactive”. In turn, FIWIIMVGNNVPNT gave an amyloid nucleation score of 2.06 ± 0.093. Consider FIWIT, for which the amyloid nucleation score result is “inactive”. FIWQMGNNPVVVAFSCRAGW yielded an amyloid nucleation score of 2.56 ± 0.076. For the substance FIYSGYTSVNKILGFYNHDS, the amyloid nucleation score turned out to be 0.95 ± 0.16. As for FIYSHTVWFRNYLHMYPILF, the amyloid nucleation score entry was “inactive”.

As to FKITEYVSFNGTRPDNISMN, the amyloid nucleation score is -0.082 ± 0.85. Turning to FKLVGCGCNVMTFVSYLVNQ, the amyloid nucleation score is 1.98 ± 0.083. With FKLWWIKCCMHPLMMHVAWM, the amyloid nucleation score was -0.036 ± 0.27. On to FKNRYFHLPCSDLLYHSLGR, for which the amyloid nucleation score entry is “inactive”.

As to FKQMDTLTHISFSKAIMPSF, the amyloid nucleation score result was “inactive”. In the case of FKRWLSSWFKLA it was “inactive”; in that of FKTFSFFKLFCTYCYYTLTE, “inactive”.
